Like-named read-outs stand apart in the source and are kept apart here.
Legend:
[1] = system: microorganisms; conditions: cited from earlier work
[2] = system: wound healing; conditions: cited from earlier work
[3] = 25 ± 2° C./60% RH ± 5%, 1 month
[4] = 25 ± 2° C./60% RH ± 5%, 3 months

RDALKSSVDAVKYFGKGTYT (RDA20) [collagen VI derived polypeptide]
Antimicrobial activity? [1]: Yes

RKVAVFFSNTPTRASPQLRE (RKV20) [collagen VI derived polypeptide]
Antimicrobial activity? [1]: Yes

FFLKDFSTKRQIIDAINKVVYKGGR (FFL25) [collagen VI derived polypeptide]
Antimicrobial activity? [1]: Yes
Wound healing activity? [2]: have wound healing properties and Yes

VTTEIRFADSKRKSVLLDKIKNLQVALTSK (VTT30) [collagen VI derived polypeptide]
Antimicrobial activity? [1]: Yes
Wound healing activity? [2]: have wound healing properties and Yes

FTKRFIDNLRDRYYRCDRNL (FTK20) [collagen VI derived polypeptide]
Antimicrobial activity? [1]: Yes

KPEILNLVKRMKIKTGKALN (KPE20) [collagen VI derived polypeptide]
Antimicrobial activity? [1]: Yes

GFAHIRDFVSRIVRRLNIGP (GFA20) [collagen VI derived polypeptide]
Antimicrobial activity? [1]: Yes

FYLKTYRSQAPVLDAIRRLRLRGGS (FYL25) [collagen VI derived polypeptide]
Antimicrobial activity? [1]: Yes
Wound healing activity? [2]: have wound healing properties and Yes

GVRPDGFAHIRDFVSRIVRRLNIGPSKV (GVR28) [peptide derived from collagen VI alpha-3 chain]
Appearance (25 ± 2° C./60% RH ± 5%, 0 D): White powder
Identity (RP-HPLC) (25 ± 2° C./60% RH ± 5%, 0 D): Retention Time Conforms
Purity (RP-HPLC) (25 ± 2° C./60% RH ± 5%, 0 D): 98.1%
Related Impurities (by RRT), Specified Impurity %: RRT = 0.80*, RRT = 0.81* Total (25 ± 2° C./60% RH ± 5%, 0 D): 0.07%
Related Impurities (by RRT), Specified Impurity %: RRT = 0.96* (25 ± 2° C./60% RH ± 5%, 0 D): 0.38%
Related Impurities (by RRT), Specified Impurity %: RRT = 1.04 (25 ± 2° C./60% RH ± 5%, 0 D): 0.56%
Related Impurities (by RRT), Specified Impurity %: RRT = 1.13* (25 ± 2° C./60% RH ± 5%, 0 D): 0.22%
Unspecified Impurity % (Report ≥0.10%): RRT = 0.94 (25 ± 2° C./60% RH ± 5%, 0 D): 0.15%
Unspecified Impurity % (Report ≥0.10%): RRT = 1.09 (25 ± 2° C./60% RH ± 5%, 0 D): 0.32%
Unspecified Impurity % ≤0.50% (25 ± 2° C./60% RH ± 5%, 0 D): Conforms
Water Content (KF) (25 ± 2° C./60% RH ± 5%, 0 D): 4.2%
Appearance [3]: White powder
Identity (RP-HPLC) [3]: Retention Time Conforms
Purity (RP-HPLC) [3]: 97.7%
Related Impurities (by RRT), Specified Impurity %: RRT = 0.82* [3]: 0.07%
Related Impurities (by RRT), Specified Impurity %: RRT = 0.97 [3]: 0.40%
Related Impurities (by RRT), Specified Impurity %: RRT = 1.04 [3]: 0.57%
Related Impurities (by RRT), Specified Impurity %: RRT = 1.12 [3]: 0.49%
Unspecified Impurity % (Report ≥0.10%): RRT = 0.95 [3]: 0.16%
Unspecified Impurity % (Report ≥0.10%): RRT = 1.08 [3]: 0.32%
Unspecified Impurity % ≤0.50% [3]: Conforms
Water Content (KF) [3]: 3.9%
Appearance [4]: White powder
Identity (RP-HPLC) [4]: Retention Time Conforms
Purity (RP-HPLC) [4]: 97.3%
Related Impurities (by RRT), Specified Impurity %: RRT = 0.83* [4]: 0.12%
Related Impurities (by RRT), Specified Impurity %: RRT = 0.97 [4]: 0.41%
Related Impurities (by RRT), Specified Impurity %: RRT = 1.04 [4]: 0.56%
Related Impurities (by RRT), Specified Impurity %: RRT = 1.12 [4]: 0.77%
Unspecified Impurity % (Report ≥0.10%): RRT = 0.95 [4]: 0.17%
Unspecified Impurity % (Report ≥0.10%): RRT = 1.08 [4]: 0.32%
Unspecified Impurity % ≤0.50% [4]: conforms
Water Content (KF) [4]: 3.9%
change in purity during the initial 3 months (stored at 25° C.): slight decrease in purity
Appearance (−20 ± 5° C., 0 D): White powder
Identity (RP-HPLC) (−20 ± 5° C., 0 D): Retention Time Conforms
Purity (RP-HPLC) (−20 ± 5° C., 0 D): 98.10%
Related Impurities (by RRT), Specified Impurity %: RRT = 0.80*, RRT = 0.81* Total (−20 ± 5° C., 0 D): 0.07%
Related Impurities (by RRT), Specified Impurity %: RRT = 0.96* (−20 ± 5° C., 0 D): 0.38%
Related Impurities (by RRT), Specified Impurity %: RRT = 1.04 (−20 ± 5° C., 0 D): 0.56%
Related Impurities (by RRT), Specified Impurity %: RRT = 1.13* (−20 ± 5° C., 0 D): 0.22%
Unspecified Impurity % (Report ≥0.10%): RRT = 0.94 (−20 ± 5° C., 0 D): 0.15%
Unspecified Impurity % (Report ≥0.10%): RRT = 1.09 (−20 ± 5° C., 0 D): 0.32%
Unspecified Impurity % ≤0.50% (−20 ± 5° C., 0 D): conforms
Water Content (KF) (−20 ± 5° C., 0 D): 4.2%
Appearance (−20 ± 5° C., 3 months): White powder
Identity (RP-HPLC) (−20 ± 5° C., 3 months): Retention Time Conforms
Purity (RP-HPLC) (−20 ± 5° C., 3 months): 98.10%
Related Impurities (by RRT), Specified Impurity %: RRT = 0.83* (−20 ± 5° C., 3 months): 0.04%
Related Impurities (by RRT), Specified Impurity %: RRT = 0.97 (−20 ± 5° C., 3 months): 0.38%
Related Impurities (by RRT), Specified Impurity %: RRT = 1.04 (−20 ± 5° C., 3 months): 0.54%
Related Impurities (by RRT), Specified Impurity %: RRT = 1.12 (−20 ± 5° C., 3 months): 0.20%
Unspecified Impurity % (Report ≥0.10%): RRT = 0.95 (−20 ± 5° C., 3 months): 0.17%
Unspecified Impurity % (Report ≥0.10%): RRT = 1.08 (−20 ± 5° C., 3 months): 0.31%
Unspecified Impurity % ≤0.50% (−20 ± 5° C., 3 months): conforms
Water Content (KF) (−20 ± 5° C., 3 months): 1.8%
Antimicrobial activity? [1]: Yes
Wound healing activity? [2]: have wound healing properties and Yes

TKRFAKRLAERFLTAGRTDP (TKR20) [collagen VI derived polypeptide]
Antimicrobial activity? [1]: Yes

KGFESKVDAILNRISQMHRV (KGF20) [collagen VI derived polypeptide]
Antimicrobial activity? [1]: Yes

LRLKPYGALVDKVKSFTKRF (LRL20) [collagen VI derived polypeptide]
Antimicrobial activity? [1]: Yes

VAAKPVATKMAVRPPVAVKP (VAA20) [collagen VI derived polypeptide]
Antimicrobial activity? [1]: Yes

EQNFHKARRFVEQVARRLTL (EQN20) [collagen VI derived polypeptide]
Antimicrobial activity? [1]: Yes

AAKPVATKPEVPRPQAAKPA (AAK20) [collagen VI derived polypeptide]
Antimicrobial activity? [1]: Yes

TSSPTSNPVTTTKPVTTTKPVTTTTKPVTTTTKPVT (TSS36) [collagen VI derived polypeptide]
Antimicrobial activity? [1]: Yes

DVNVFAIGVEDADEGALKEIASEPLNMHMFNL (DVN32) [collagen VI derived polypeptide]
Antimicrobial activity? [1]: No
Wound healing activity? [2]: No

TTKPVTTTKPVTTTTKPVTT (TTK20) [collagen VI derived polypeptide]
Antimicrobial activity? [1]: Yes

QAPVLDAIRRLRLRGGSPLN (QAP20) [collagen VI derived polypeptide]
Antimicrobial activity? [1]: Yes

VVHAINAIVRSPRGGARRHA (VVH20) [collagen VI derived polypeptide]
Antimicrobial activity? [1]: Yes

SFVARNTFKRVRNGFLMRKVAVFFSNTPTRASP (SFV33) [peptide derived from collagen VI alpha-3 chain]
Appearance (25 ± 2° C./60% RH ± 5%, 0 D): White powder
Identity (RP-HPLC) (25 ± 2° C./60% RH ± 5%, 0 D): Retention Time Conforms
Impurity (Report all ≥0.10%): RRT = 0.65 (25 ± 2° C./60% RH ± 5%, 0 D): 0.17%
Impurity (Report all ≥0.10%): RRT = 1.02 (25 ± 2° C./60% RH ± 5%, 0 D): 0.23%
No other individual impurity ≥0.50% (25 ± 2° C./60% RH ± 5%, 0 D): conforms
Purity (RP-HPLC) (25 ± 2° C./60% RH ± 5%, 0 D): 98.1%
Related Impurities (by RRT), Specified Impurity %: RRT = 0.90 (25 ± 2° C./60% RH ± 5%, 0 D): 0.26%
Related Impurities (by RRT), Specified Impurity %: RRT = 0.95 (25 ± 2° C./60% RH ± 5%, 0 D): 0.14%
Related Impurities (by RRT), Specified Impurity %: RRT = 0.97 (25 ± 2° C./60% RH ± 5%, 0 D): 0.47%
Water Content (KF) (25 ± 2° C./60% RH ± 5%, 0 D): 4.7%
Appearance [3]: White powder
Identity (RP-HPLC) [3]: Retention Time Conforms
Impurity (Report all ≥0.10%): RRT = 0.66 [3]: 0.13%
Impurity (Report all ≥0.10%): RRT = 0.85 [3]: 0.11%
Impurity (Report all ≥0.10%): RRT = 1.02 [3]: 0.31%
Impurity (Report all ≥0.10%): RRT = 1.04 [3]: 0.17%
Impurity (Report all ≥0.10%): RRT = 1.08 [3]: 0.24%
No other individual impurity ≥0.50% [3]: conforms
Purity (RP-HPLC) [3]: 97.8%
Related Impurities (by RRT), Specified Impurity %: RRT = 0.90 [3]: 0.24%
Related Impurities (by RRT), Specified Impurity %: RRT = 0.95 [3]: 0.13%
Related Impurities (by RRT), Specified Impurity %: RRT = 0.97 [3]: 0.47%
Water Content (KF) [3]: 6.8%
Appearance [4]: White powder
Identity (RP-HPLC) [4]: Retention Time Conforms
Impurity (Report all ≥0.10%): RRT = 0.62 [4]: 0.15%
Impurity (Report all ≥0.10%): RRT = 0.84 [4]: 0.28%
No other individual impurity ≥0.50% [4]: Not conforms *
Purity (RP-HPLC) [4]: 96.9%
Related Impurities (by RRT), Specified Impurity %: RRT = 0.90 [4]: 0.20%
Related Impurities (by RRT), Specified Impurity %: RRT = 0.95 [4]: 0.09%
Related Impurities (by RRT), Specified Impurity %: RRT = 0.97 [4]: 0.42%
Water Content (KF) [4]: 8.4%
change in purity during the initial 3 months (stored at 25° C.): slight decrease in purity
new impurities (stored at 25° C., at 3 months): some new impurities were detected
change of water content (stored at 25° C., over the 3 months): increased
Appearance (−20 ± 5° C., 0 D): White powder
Identity (RP-HPLC) (−20 ± 5° C., 0 D): Retention Time Conforms
Impurity (Report all ≥0.10%): RRT = 0.65 (−20 ± 5° C., 0 D): 0.17%
Impurity (Report all ≥0.10%): RRT = 1.02 (−20 ± 5° C., 0 D): 0.23%
No other individual impurity ≥0.50% (−20 ± 5° C., 0 D): conforms
Purity (RP-HPLC) (−20 ± 5° C., 0 D): 98.1%
Related Impurities (by RRT), Specified Impurity %: RRT = 0.90 (−20 ± 5° C., 0 D): 0.26%
Related Impurities (by RRT), Specified Impurity %: RRT = 0.95 (−20 ± 5° C., 0 D): 0.14%
Related Impurities (by RRT), Specified Impurity %: RRT = 0.97 (−20 ± 5° C., 0 D): 0.47%
Water Content (KF) (−20 ± 5° C., 0 D): 4.7%
Appearance (−20 ± 5° C., 1 month): White powder
Identity (RP-HPLC) (−20 ± 5° C., 1 month): Retention Time Conforms
Impurity (Report all ≥0.10%): RRT = 1.03 (−20 ± 5° C., 1 month): 0.24%
No other individual impurity ≥0.50% (−20 ± 5° C., 1 month): conforms
Purity (RP-HPLC) (−20 ± 5° C., 1 month): 98.3%
Related Impurities (by RRT), Specified Impurity %: RRT = 0.90 (−20 ± 5° C., 1 month): 0.23%
Related Impurities (by RRT), Specified Impurity %: RRT = 0.95 (−20 ± 5° C., 1 month): 0.10%
Related Impurities (by RRT), Specified Impurity %: RRT = 0.98 (−20 ± 5° C., 1 month): 0.44%
Water Content (KF) (−20 ± 5° C., 1 month): 4.9%
Antimicrobial activity? [1]: Yes
Wound healing activity? [2]: No

YDRLIKESRRQKTRVFAVVI (YDR20) [collagen VI derived polypeptide]
Antimicrobial activity? [1]: Yes

B1: AAAKPAPAKPVAAKPVATKMATVRPPVAVKPATAAKPVAAKPAAVRPPAAAAAKPVATKPEVPRPQAAKPAATKPA (peptide)
chain: AAAKPAPAKPVAAKPVATKMATVRPPVAVKPATAAKPVAAKPAAVRPPAAAAAKPVATKPEVPRPQAAKPAATKPA
modifications: AAA76
notes: collagen VI derived polypeptide
Antimicrobial activity? [1]: Yes
